Experiment [1] deals with T1, FcγRIIIA having a Phe residue at polymorphic site 158 (human, UniProt P08637 17-208, limits assumed).
T1 construct: also called FcγRIIIA-158F; CD16a; not shown: His-tag fused to the C-terminus
Kind of experiment: SPR, Fc captured on Protein A, receptor injected; steady-state analysis.

The target of experiment [2] is T2, FcγRIIB (human, UniProt P31994 43-217, limits assumed).
T2 construct: also called CD32; not shown: His-tag fused to the C-terminus
T2 sequence (looked up): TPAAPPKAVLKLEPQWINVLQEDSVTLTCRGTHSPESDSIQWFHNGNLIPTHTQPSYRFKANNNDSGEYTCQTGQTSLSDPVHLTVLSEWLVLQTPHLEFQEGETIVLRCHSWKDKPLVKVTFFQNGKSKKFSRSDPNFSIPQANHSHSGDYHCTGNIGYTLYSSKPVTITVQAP
Described as above.

In experiment [3] the target is T3, FcγRIIA (human, UniProt P12318 34-217, limits assumed).
T3 construct: also called CD32; not shown: His-tag fused to the C-terminus
T3 sequence (looked up): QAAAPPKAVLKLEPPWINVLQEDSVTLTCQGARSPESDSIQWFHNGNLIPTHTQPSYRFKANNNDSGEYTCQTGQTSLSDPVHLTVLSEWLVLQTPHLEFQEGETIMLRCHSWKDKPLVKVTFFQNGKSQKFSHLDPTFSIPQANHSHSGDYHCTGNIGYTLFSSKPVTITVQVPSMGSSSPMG
The experiment is described as above.

The target of experiment [4] is T4, FcγRIIIA having a Val residue at polymorphic site 158 (human, UniProt P08637 17-208).
T4 construct: also called FcγRIIIA-158V; CD16a; not shown: His-tag fused to the C-terminus
T4 sequence (P08637 17-208 F176V): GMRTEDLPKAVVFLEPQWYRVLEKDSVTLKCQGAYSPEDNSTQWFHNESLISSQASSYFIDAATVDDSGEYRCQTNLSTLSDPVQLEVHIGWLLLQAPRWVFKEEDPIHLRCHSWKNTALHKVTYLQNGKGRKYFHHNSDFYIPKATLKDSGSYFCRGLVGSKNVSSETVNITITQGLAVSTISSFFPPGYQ
Kind of experiment: ratio of SPR KDs, reference Fc-WT.

For experiment [5], the target named is T1, FcγRIIIA having a Phe residue at …. Kind of experiment: ratio of SPR KDs, reference Fc-WT.
Experiment [6] addresses T2, FcγRIIB. Put plainly: ratio of SPR KDs, reference Fc-WT.
Experiment [7] addresses T3, FcγRIIA. Kind of experiment: ratio of SPR KDs, reference Fc-WT.
Experiment [8] concerns the target T4, FcγRIIIA having a Val residue at …. Kind of experiment: SPR, Fc captured on Protein A, receptor injected; 1:1 Langmuir kinetic fit. On the procedure:
All experiments were performed using a Biacore T100 instrument (GE Healthcare). Protein A (Sigma-Aldrich) (0.1 mg/mL, 10 mM sodium acetate, pH 4.5) was immobilized at a density of 1000 response units (RU) in flow cells 1 and 2 of a CM5 sensor chip via standard amine-coupling procedure according to the manufacturer's instructions (GE Healthcare), using HBS-X buffer (10 mM HEPES, 150 mM NaCl, 0.05% Tween 20) as the running buffer and a flow rate of […]. Flow cell 1 was used as negative control, while flow cell 2 was used to capture wild type or hyper-glycosylated Fc variants in PBS at a density of 100-150 RU. […] Between experiments, the sensor chip surface was regenerated by 2 injections of 15 μL each of 20 mM HCl. Experimental data were corrected for instrument and bulk artifacts by referencing to a control sensor chip surface using Biacore T100 evaluation software 2.0.3 (GE Healthcare). Kinetic parameters of binding were determined using the same software and a 1:1 Langmuir binding model for all FcγRIIIA-158V interactions.

T1 sequence (P08637 17-208 limits assumed): as the sequence (P08637 17-208 F176V) above, with V160F counted along it

B1: Fc-226^hg/290^hg/E333A/K334A (other)
chain: EPKSCDKTHTNSTCPAPELLGGPSVFLFPPKPKDTLMISRTPEVTCVVVDVSHEDPEVKFNWYVDGVEVHNAKTNSTEEQYNSTYRVVSVLTVLHQDWLNGKEYKCKVSNKALPAPIAATISKAKGQPREPQVYTLPPSREEMTKNQVSLTCLVKGFYPSDIAVEWESNGQPENNYKTTPPVLDSDGSFFLYSKLTVDKSRWQQGNVFSCSVMHEALHNHYTQKSLSLSPGK
modifications: N-linked glycans at Asn297 and at engineered Asn226 and Asn290 (IgG1 heavy chain positions)
In the case of B1, the equilibrium dissociation constant (Kd) in experiment [1] was 151 nM; with FcγRIIB [2] it was 20800 nM; in the experiment with FcγRIIA [3], 13400 nM; in experiment [8], 57 nM. Besides, the “fold decrease in binding (Fc-variant KD/Fc-WT KD)” value (shortened to “fold decrease in binding”) turned out to be 17.8 fold in experiment [4], 11.8 fold in experiment [5], 12.2 fold with FcγRIIB [6] and 11.2 fold with FcγRIIA [7].

B2: IgG1 Fc variant Fc-226^hg/290^hg/S298A (other)
chain: EPKSCDKTHTNSTCPAPELLGGPSVFLFPPKPKDTLMISRTPEVTCVVVDVSHEDPEVKFNWYVDGVEVHNAKTNSTEEQYNATYRVVSVLTVLHQDWLNGKEYKCKVSNKALPAPIEKTISKAKGQPREPQVYTLPPSREEMTKNQVSLTCLVKGFYPSDIAVEWESNGQPENNYKTTPPVLDSDGSFFLYSKLTVDKSRWQQGNVFSCSVMHEALHNHYTQKSLSLSPGK
modifications: N-linked glycans at Asn297 and at engineered Asn226 and Asn290 (IgG1 heavy chain positions)
For the molecule B2, the equilibrium dissociation constant (Kd) in experiment [1] is 87.8 nM; in the experiment with FcγRIIB [2], 104000 nM; with FcγRIIA [3], 12800 nM; in experiment [8], 20.2 nM. Further, the “fold decrease in binding” value was 6.3 fold in experiment [4], 6.9 fold in experiment [5], 60.9 fold with FcγRIIB [6] and 10.7 fold with FcγRIIA [7].

B3: IgG1 Fc variant Fc-226^hg/290^hg/S298A/E333A/K334A (other)
chain: EPKSCDKTHTNSTCPAPELLGGPSVFLFPPKPKDTLMISRTPEVTCVVVDVSHEDPEVKFNWYVDGVEVHNAKTNSTEEQYNATYRVVSVLTVLHQDWLNGKEYKCKVSNKALPAPIAATISKAKGQPREPQVYTLPPSREEMTKNQVSLTCLVKGFYPSDIAVEWESNGQPENNYKTTPPVLDSDGSFFLYSKLTVDKSRWQQGNVFSCSVMHEALHNHYTQKSLSLSPGK
modifications: N-linked glycans at Asn297 and at engineered Asn226 and Asn290 (IgG1 heavy chain positions)
For the molecule B3, the Kd stood at 50.1 nM in experiment [1], 64200 nM with FcγRIIB [2], 12800 nM with FcγRIIA [3] and 15.5 nM in experiment [8]. The “fold decrease in binding” value in experiment [4] was determined as 4.8 fold; in experiment [5], 3.9 fold; with FcγRIIB [6], 37.8 fold; with FcγRIIA [7], 10.7 fold.

B4: Fc-S298A/E333A/K334A (other)
chain: EPKSCDKTHTCPPCPAPELLGGPSVFLFPPKPKDTLMISRTPEVTCVVVDVSHEDPEVKFNWYVDGVEVHNAKTKPREEQYNATYRVVSVLTVLHQDWLNGKEYKCKVSNKALPAPIAATISKAKGQPREPQVYTLPPSREEMTKNQVSLTCLVKGFYPSDIAVEWESNGQPENNYKTTPPVLDSDGSFFLYSKLTVDKSRWQQGNVFSCSVMHEALHNHYTQKSLSLSPGK
modifications: N-linked glycan at Asn297
In the case of B4, the Kd in the experiment with FcγRIIB [2] is 7100 nM; in experiment [8] it was 2.1 nM.

B5: IgG1 Fc variant Fc-290^hg (other)
chain: EPKSCDKTHTCPPCPAPELLGGPSVFLFPPKPKDTLMISRTPEVTCVVVDVSHEDPEVKFNWYVDGVEVHNAKTNSTEEQYNSTYRVVSVLTVLHQDWLNGKEYKCKVSNKALPAPIEKTISKAKGQPREPQVYTLPPSREEMTKNQVSLTCLVKGFYPSDIAVEWESNGQPENNYKTTPPVLDSDGSFFLYSKLTVDKSRWQQGNVFSCSVMHEALHNHYTQKSLSLSPGK
modifications: N-linked glycans at Asn297 and at engineered Asn290 (IgG1 heavy chain positions)
notes: KPR at 290-292 replaced by NST
Consider B5, for which the values for the Kd (in experiment [1]; with FcγRIIB [2]; in experiment [8]) were 66.1 nM, 18800 nM and 20.8 nM, respectively.

B6: IgG1 Fc variant Fc-226^hg/290^hg (other)
chain: EPKSCDKTHTNSTCPAPELLGGPSVFLFPPKPKDTLMISRTPEVTCVVVDVSHEDPEVKFNWYVDGVEVHNAKTNSTEEQYNSTYRVVSVLTVLHQDWLNGKEYKCKVSNKALPAPIEKTISKAKGQPREPQVYTLPPSREEMTKNQVSLTCLVKGFYPSDIAVEWESNGQPENNYKTTPPVLDSDGSFFLYSKLTVDKSRWQQGNVFSCSVMHEALHNHYTQKSLSLSPGK
modifications: N-linked glycans at Asn297 and at engineered Asn226 and Asn290 (IgG1 heavy chain positions)
notes: Both CPP (226-228) and KPR (290-292) replaced by NST
Regarding B6, the Kd in experiment [1] was found to be 160 nM; in the experiment with FcγRIIB [2] it was 51200 nM; with FcγRIIA [3], 9100 nM; in experiment [8], 27.5 nM. Also, the “fold decrease in binding” value in experiment [4] worked out at 8.6 fold; in experiment [5], 12.4 fold; with FcγRIIB [6] it was 30.1 fold; with FcγRIIA [7], 7.6 fold.

Values taken from patent US20160280766A1 (UNIVERSITY OF MARYLAND BALTIMORE, published 2016).
